This is an account of results in article doi:10.1101/2025.09.07.674715.

The experiment concerns the target GAPS4a of GAPS4^MAVP-R (Vibrio parahaemolyticus MAVP-R) (Vibrio parahaemolyticus MAVP-R). Kind of experiment: SEC-MALS. Background: SEC sorts molecules by how far they enter the pores of the column.

In the case of “GAPS4b of GAPS4^MAVP-R (Vibrio parahaemolyticus MAVP-R) (natural protein)”, the stoichiometry N (GAPS4b per GAPS4a (2:2)) amounted to 1.
